From PMC2172130 come the findings set out here.

The target of the assay is tomosyn (expressed in Sf9 cells) (UniProt Q9WU70). Put plainly: far-Western, overlay or dot blot.
Sequence of UniProt Q9WU70 (Q9WU70 whole entry): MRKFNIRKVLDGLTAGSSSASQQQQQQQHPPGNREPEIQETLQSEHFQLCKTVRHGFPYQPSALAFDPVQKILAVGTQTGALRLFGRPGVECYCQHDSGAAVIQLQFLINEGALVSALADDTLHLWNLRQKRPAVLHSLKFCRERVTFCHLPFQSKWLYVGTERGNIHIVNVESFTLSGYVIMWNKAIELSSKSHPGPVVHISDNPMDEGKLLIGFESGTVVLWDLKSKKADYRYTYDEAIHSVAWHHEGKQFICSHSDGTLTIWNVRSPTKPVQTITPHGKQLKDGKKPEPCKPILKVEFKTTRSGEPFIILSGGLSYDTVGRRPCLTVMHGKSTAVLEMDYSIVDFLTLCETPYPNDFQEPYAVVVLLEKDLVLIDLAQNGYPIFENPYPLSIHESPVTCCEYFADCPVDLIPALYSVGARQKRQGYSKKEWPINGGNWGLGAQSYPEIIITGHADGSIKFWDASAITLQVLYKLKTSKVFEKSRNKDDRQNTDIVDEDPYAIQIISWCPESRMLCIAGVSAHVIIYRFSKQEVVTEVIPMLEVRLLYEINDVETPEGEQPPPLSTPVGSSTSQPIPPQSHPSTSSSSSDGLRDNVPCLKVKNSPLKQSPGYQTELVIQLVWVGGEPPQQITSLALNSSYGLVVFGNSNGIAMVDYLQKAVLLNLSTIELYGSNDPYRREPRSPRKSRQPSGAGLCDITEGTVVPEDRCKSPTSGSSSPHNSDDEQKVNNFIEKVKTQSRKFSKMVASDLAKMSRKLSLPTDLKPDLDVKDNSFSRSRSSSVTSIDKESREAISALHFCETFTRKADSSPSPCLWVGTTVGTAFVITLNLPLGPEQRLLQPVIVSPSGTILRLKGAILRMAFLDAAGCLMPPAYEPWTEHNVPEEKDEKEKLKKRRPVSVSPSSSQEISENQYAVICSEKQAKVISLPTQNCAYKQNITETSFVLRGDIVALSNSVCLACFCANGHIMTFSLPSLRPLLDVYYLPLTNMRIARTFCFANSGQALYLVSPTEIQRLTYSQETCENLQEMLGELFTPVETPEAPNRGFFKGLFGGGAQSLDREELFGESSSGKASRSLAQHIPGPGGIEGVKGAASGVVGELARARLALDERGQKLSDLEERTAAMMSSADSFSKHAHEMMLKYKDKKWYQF

Consider “syntaxin-1, nonphosphorylated form (recombinant) (from UniProt P32851 1-288) (natural protein)”, for which the Kd turned out to be 120 nM.
